First the molecules themselves.
B1: GC5B471 (antibody, V domains shown)
VH: EVQLVQSGAEVKKPGESLKISCKGSGYSFTSYYIGWVRQMPGKGLEWMGIIYPGASDTRYSPSFQGQVTISADKSISTAYLQWSSLKASDTAMYYCARVYSFGGRHKALFDYWGQGTLVTVSS
VL: EIVLTQSPATLSLSPGERATLSCRASQSVSSYLAWYQQKPGQAPRLLIYDASNRATGIPARFSGSGSGTDFTLTISSLEPEDFAVYYCQQRSNWPLTFGQGTKVEIK
notes: GC5B164 PTM variant, Hc GC5H278
B2: GC5B482 (antibody, V domains shown)
VH: EVQLVQSGAEVKKPGESLKISCKGSGYSFTSYVIGWVRQMPGKGLEWMGIIYPGKSDTRYSPSFQGQVTISADKSISTAYLQWSSLKASDTAMYYCARVYSFGGRHKALFDYWGQGTLVTVSS
VL: EIVLTQSPATLSLSPGERATLSCRASQSVSSYLAWYQQKPGQAPRLLIYDASNRATGIPARFSGSGSGTDFTLTISSLEPEDFAVYYCQQRSNWPLTFGQGTKVEIK
notes: GC5B164 PTM variant, Hc GC5H267
B3: GC5B474 (antibody, V domains shown)
VH: EVQLVQSGAEVKKPGESLKISCKGSGYSFTSYGIGWVRQMPGKGLEWMGIIYPGASDTRYSPSFQGQVTISADKSISTAYLQWSSLKASDTAMYYCARVYSFGGRHKALFDYWGQGTLVTVSS
VL: EIVLTQSPATLSLSPGERATLSCRASQSVSSYLAWYQQKPGQAPRLLIYDASNRATGIPARFSGSGSGTDFTLTISSLEPEDFAVYYCQQRSNWPLTFGQGTKVEIK
notes: GC5B164 PTM variant, Hc GC5H275
B4: GC5B480 (antibody, V domains shown)
VH: EVQLVQSGAEVKKPGESLKISCKGSGYSFTSYAIGWVRQMPGKGLEWMGIIYPGSSDTRYSPSFQGQVTISADKSISTAYLQWSSLKASDTAMYYCARVYSFGGRHKALFDYWGQGTLVTVSS
VL: EIVLTQSPATLSLSPGERATLSCRASQSVSSYLAWYQQKPGQAPRLLIYDASNRATGIPARFSGSGSGTDFTLTISSLEPEDFAVYYCQQRSNWPLTFGQGTKVEIK
notes: GC5B164 PTM variant, Hc GC5H269
B5: GC5B477 (antibody, V domains shown)
VH: EVQLVQSGAEVKKPGESLKISCKGSGYSFTSYVIGWVRQMPGKGLEWMGIIYPGSSDTRYSPSFQGQVTISADKSISTAYLQWSSLKASDTAMYYCARVYSFGGRHKALFDYWGQGTLVTVSS
VL: EIVLTQSPATLSLSPGERATLSCRASQSVSSYLAWYQQKPGQAPRLLIYDASNRATGIPARFSGSGSGTDFTLTISSLEPEDFAVYYCQQRSNWPLTFGQGTKVEIK
notes: GC5B164 PTM variant, Hc GC5H272
B6: GC5B478 (antibody, V domains shown)
VH: EVQLVQSGAEVKKPGESLKISCKGSGYSFTSYFIGWVRQMPGKGLEWMGIIYPGSSDTRYSPSFQGQVTISADKSISTAYLQWSSLKASDTAMYYCARVYSFGGRHKALFDYWGQGTLVTVSS
VL: EIVLTQSPATLSLSPGERATLSCRASQSVSSYLAWYQQKPGQAPRLLIYDASNRATGIPARFSGSGSGTDFTLTISSLEPEDFAVYYCQQRSNWPLTFGQGTKVEIK
notes: GC5B164 PTM variant, Hc GC5H271
B7: GC5B475 (antibody, V domains shown)
VH: EVQLVQSGAEVKKPGESLKISCKGSGYSFTSYAIGWVRQMPGKGLEWMGIIYPGASDTRYSPSFQGQVTISADKSISTAYLQWSSLKASDTAMYYCARVYSFGGRHKALFDYWGQGTLVTVSS
VL: EIVLTQSPATLSLSPGERATLSCRASQSVSSYLAWYQQKPGQAPRLLIYDASNRATGIPARFSGSGSGTDFTLTISSLEPEDFAVYYCQQRSNWPLTFGQGTKVEIK
notes: GC5B164 PTM variant, Hc GC5H274
B8: GC5B472 (antibody, V domains shown)
VH: EVQLVQSGAEVKKPGESLKISCKGSGYSFTSYVIGWVRQMPGKGLEWMGIIYPGASDTRYSPSFQGQVTISADKSISTAYLQWSSLKASDTAMYYCARVYSFGGRHKALFDYWGQGTLVTVSS
VL: EIVLTQSPATLSLSPGERATLSCRASQSVSSYLAWYQQKPGQAPRLLIYDASNRATGIPARFSGSGSGTDFTLTISSLEPEDFAVYYCQQRSNWPLTFGQGTKVEIK
notes: GC5B164 PTM variant, Hc GC5H277
B9: GC5B473 (antibody, V domains shown)
VH: EVQLVQSGAEVKKPGESLKISCKGSGYSFTSYFIGWVRQMPGKGLEWMGIIYPGASDTRYSPSFQGQVTISADKSISTAYLQWSSLKASDTAMYYCARVYSFGGRHKALFDYWGQGTLVTVSS
VL: EIVLTQSPATLSLSPGERATLSCRASQSVSSYLAWYQQKPGQAPRLLIYDASNRATGIPARFSGSGSGTDFTLTISSLEPEDFAVYYCQQRSNWPLTFGQGTKVEIK
notes: GC5B164 PTM variant, Hc GC5H276
B10: GC5B481 (antibody, V domains shown)
VH: EVQLVQSGAEVKKPGESLKISCKGSGYSFTSYYIGWVRQMPGKGLEWMGIIYPGKSDTRYSPSFQGQVTISADKSISTAYLQWSSLKASDTAMYYCARVYSFGGRHKALFDYWGQGTLVTVSS
VL: EIVLTQSPATLSLSPGERATLSCRASQSVSSYLAWYQQKPGQAPRLLIYDASNRATGIPARFSGSGSGTDFTLTISSLEPEDFAVYYCQQRSNWPLTFGQGTKVEIK
notes: GC5B164 PTM variant, Hc GC5H268
B11: GC5B484 (antibody, V domains shown)
VH: EVQLVQSGAEVKKPGESLKISCKGSGYSFTSYGIGWVRQMPGKGLEWMGIIYPGKSDTRYSPSFQGQVTISADKSISTAYLQWSSLKASDTAMYYCARVYSFGGRHKALFDYWGQGTLVTVSS
VL: EIVLTQSPATLSLSPGERATLSCRASQSVSSYLAWYQQKPGQAPRLLIYDASNRATGIPARFSGSGSGTDFTLTISSLEPEDFAVYYCQQRSNWPLTFGQGTKVEIK
notes: GC5B164 PTM variant, Hc GC5H265
B12: GC5B476 (antibody, V domains shown)
VH: EVQLVQSGAEVKKPGESLKISCKGSGYSFTSYYIGWVRQMPGKGLEWMGIIYPGSSDTRYSPSFQGQVTISADKSISTAYLQWSSLKASDTAMYYCARVYSFGGRHKALFDYWGQGTLVTVSS
VL: EIVLTQSPATLSLSPGERATLSCRASQSVSSYLAWYQQKPGQAPRLLIYDASNRATGIPARFSGSGSGTDFTLTISSLEPEDFAVYYCQQRSNWPLTFGQGTKVEIK
notes: GC5B164 PTM variant, Hc GC5H273
B13: GC5B483 (antibody, IgG4, V domains shown)
VH: EVQLVQSGAEVKKPGESLKISCKGSGYSFTSYFIGWVRQMPGKGLEWMGIIYPGKSDTRYSPSFQGQVTISADKSISTAYLQWSSLKASDTAMYYCARVYSFGGRHKALFDYWGQGTLVTVSS
VL: EIVLTQSPATLSLSPGERATLSCRASQSVSSYLAWYQQKPGQAPRLLIYDASNRATGIPARFSGSGSGTDFTLTISSLEPEDFAVYYCQQRSNWPLTFGQGTKVEIK
notes: GC5B164 variant D55K, W33F; IgG4 S228P, L234A, L235A; also called GC5H266
B14: GC5B485 (antibody, V domains shown)
VH: EVQLVQSGAEVKKPGESLKISCKGSGYSFTSYAIGWVRQMPGKGLEWMGIIYPGKSDTRYSPSFQGQVTISADKSISTAYLQWSSLKASDTAMYYCARVYSFGGRHKALFDYWGQGTLVTVSS
VL: EIVLTQSPATLSLSPGERATLSCRASQSVSSYLAWYQQKPGQAPRLLIYDASNRATGIPARFSGSGSGTDFTLTISSLEPEDFAVYYCQQRSNWPLTFGQGTKVEIK
notes: GC5B164 PTM variant, Hc GC5H264
B15: GC5B479 (antibody, V domains shown)
VH: EVQLVQSGAEVKKPGESLKISCKGSGYSFTSYGIGWVRQMPGKGLEWMGIIYPGSSDTRYSPSFQGQVTISADKSISTAYLQWSSLKASDTAMYYCARVYSFGGRHKALFDYWGQGTLVTVSS
VL: EIVLTQSPATLSLSPGERATLSCRASQSVSSYLAWYQQKPGQAPRLLIYDASNRATGIPARFSGSGSGTDFTLTISSLEPEDFAVYYCQQRSNWPLTFGQGTKVEIK
notes: GC5B164 PTM variant, Hc GC5H270

15 molecules from patent publication US20230227548A1 (published 2023) can be followed below.

The target in this assay is T1, human GPRC5D (human, UniProt Q9NZD1 1-345).
T1 construct: on transfected HEK293 or RBL cells, or endogenous on MM1R, H929, OPM2, LP-1, JIM3 and patient plasma cells; also called G-protein coupled receptor family C group 5 member D; hGPRC5D
T1 sequence (Q9NZD1 whole entry): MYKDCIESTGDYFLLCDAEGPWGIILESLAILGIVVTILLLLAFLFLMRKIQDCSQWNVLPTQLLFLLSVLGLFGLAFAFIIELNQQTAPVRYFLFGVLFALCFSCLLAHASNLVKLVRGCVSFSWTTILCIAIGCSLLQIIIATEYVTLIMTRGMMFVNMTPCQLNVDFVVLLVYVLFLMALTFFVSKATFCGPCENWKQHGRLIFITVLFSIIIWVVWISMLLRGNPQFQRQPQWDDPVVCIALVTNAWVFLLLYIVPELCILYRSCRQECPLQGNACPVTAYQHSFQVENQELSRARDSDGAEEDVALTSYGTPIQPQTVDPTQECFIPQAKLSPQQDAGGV
Description: FACS, human GPRC5D cells.
Take B1: the binding result is “binds”.

In the case of B2, the binding result is on record as “binds”.

In the case of B3, the binding result is “binds”.

With B4, the binding result is “binds”.

As to B5, the binding result was “binds”.

On to B6, for which the binding result is “binds”.

With B7, the binding result is “binds”.

On to B8, for which the binding result is on record as “binds”.

Consider B9, for which the binding result was “binds”.

On to B10, for which the binding result is “binds”.

Regarding B11, the binding result was “binds”.

For B12, the binding result is listed as “binds”.

For B13, the binding result was “binds”.

As to B14, the binding result was “binds”.

Turning to B15, the binding result is “binds”.
